This is an account of results in EP1728516A1.

Holding throughout (assay): cell-based or functional assay
Experiment [1] deals with endogenous wild-type PLB of adult rabbit myocytes (rabbit) (UniProt P61015).
Experiment [2] has as its target endogenous wild-type PLB of cardiac myocytes or SR (species not stated at these places) (Rattus norvegicus (Rat)) (UniProt P61016).
Experiment [3] addresses endogenous wild-type PLB of rat cardiac myocytes (rat) (UniProt P61016).

UniProt P61015, sequence (P61015 whole entry): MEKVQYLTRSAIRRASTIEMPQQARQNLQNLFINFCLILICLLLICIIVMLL

For PLB double point mutant K3E/R14E, in experiment [1], the decrease in RT50 against the LacZ control amounted to 25%, the increase in +dL/dt against the LacZ control was 115% and the increase of fractional shortening against the LacZ control was 74%. In experiment [2], this substance came in with a decrease in RT50 after plasmid transfection of myocytes of 43%; a half-time for decay (RT50) of the indo 1 Ca2+ transient, neonatal myocytes (LacZ: 0.28 seconds) of 0.2 s; a half-time for decay (RT50) of the indo 1 Ca2+ transient, percent of LacZ of 73%. The lowering of the EC50 of SR Ca2+ uptake, adult rat myocytes in experiment [3] was 36%.
